Self-cleavage data for 167 variants are collected here from the RNAGym collection of RNA variant scans (doi:10.7554/elife.80360).

B1: HDV Ribozyme (parent)
chain: GGCCGGCAUGGUCCCAGCCUCCUCGCUGGCGCCGGCUGGGCAACAUUCCGAGGGGACCGUCCCCUCGGUAAUGGCGAAUGGGACCCA

In this series the parent is B1. In words: self-cleavage, relative activity (ratio to wild type); higher = more cleavage; co-transcriptional.
Turning to C58G G68A, the self-cleavage was 1.03. With C58G G68C, the self-cleavage amounted to 0.748. To G35C C66U belongs 0.229; to C7U U72A, 0.604. G38U C57U: the self-cleavage was 0.126. In the case of U23C A71C, the self-cleavage is 0.415. Turning to A16U U47A, the self-cleavage is 0.639. As to G31C U60G, the self-cleavage turned out to be 0.222. To G1C G80A belongs 0.0405. To C75G U79A belongs 0.123; to A8C G68A, 0.554. Turning to G2C G10U, the self-cleavage was determined as 0.056. To G76C G81A belongs 0.499; to U23A A77G, 1.03; to G6U A51G, 0.475. The value for G38C G39U was 0.0396. To C30U U46G belongs 0.231; to C30A A51C, 0.612; to C4A G76U, 0.554. Take C19A C49A: the self-cleavage was determined as 0.0504. Turning to C4G U46A, the self-cleavage is 0.0573. The value for G25C C32U was 0.0755; that for C44G C84G was 0.375; that for G55A C85G was 0.962. As to C19G C62U, the self-cleavage was 0.116.

On to C14U C57A, for which the self-cleavage came out at 1.07. Consider C64U G76A, for which the self-cleavage worked out at 1.01. To A16U C66A belongs 0.831; to G40A A56C, 0.878; to C26G C36G, 0.237.

For G34C U69C, the self-cleavage was determined as 0.249.

Take C3U G38U: the self-cleavage was determined as 0.111. The value for G17A G38C was 0.0791. To U37C U79G belongs 0.465; to C61G G73U, 0.327; to G50A C58G, 0.909. A51G C66U: the self-cleavage is 0.89. As to A42C G54C, the self-cleavage was determined as 0.269. To C22G C75U belongs 0.16; to G6A C49G, 0.222. To G2U C30U belongs 0.025; to A56G C64U, 0.563; to G6A G10C, 0.249. As for G25U C30U, the self-cleavage came out at 0.102. Regarding C13G C85G, the self-cleavage came to 0.0692. As for G2U A78C, the self-cleavage was 0.0198. The value for C15G A51G was 0.587. To C3U C18U belongs 0.43.

Turning to C3G G28A, the self-cleavage was determined as 0.0326. The value for U72A A83U was 0.166; that for A45U G50A was 0.844. The value for G6A A43U was 0.116. The value for C3U C32A was 0.053. For C49G A56U, the self-cleavage was 0.96.

For the variant G34U A42U, the self-cleavage amounted to 0.252.

Regarding A51U G52C, the self-cleavage is 0.849. To G11C A42U belongs 0.0536; to C44U C63A, 0.819; to G11C U20G, 0. The value for C13U G73A was 0.128; that for G40A A77U was 0.523.

As to C18G C36G, the self-cleavage was 0. The value for C44G A51U was 0.591; that for G31U A43U was 0.149; that for C64G G68U was 0.136. The value for U72C G82U was 0.145; that for C64U G81U was 0.313; that for U37C C66A was 1.25. A51G C61U: the self-cleavage turned out to be 0.889. The value for G10C G68C was 0.705. The value for U60C C62U was 0.997. For the variant C21U C44U, the self-cleavage was found to be 0.62.

Take A8U G39A: the self-cleavage was found to be 0.318. G52U C61A: the self-cleavage was determined as 1.02. On to G11C A16C, for which the self-cleavage was 0.95. Regarding G1A C41U, the self-cleavage stood at 0.237. For the variant C49G U65A, the self-cleavage turned out to be 0.573.

With C21G G50U, the self-cleavage was found to be 0.0594. With C36G C64A, the self-cleavage stood at 0.259. For A16G U72G, the self-cleavage was 0.332. On to G25U C61G, for which the self-cleavage worked out at 0.0978. With G59C U69G, the self-cleavage was 1.11. To C4G G35C belongs 0.13; to G38U U47A, 0.109; to C13U G34C, 0.0898. C26U C63U: the self-cleavage amounted to 0.943.

Take C32A G54C: the self-cleavage stood at 0.356. The value for G35C U72G was 0.346. The value for A71U G76C was 0.914. The value for A43G U60G was 0.755; that for C19G G67U was 0.058. On to G6A C30A, for which the self-cleavage is 0.0421. As to U9G A77C, the self-cleavage was determined as 0.185. Take C57A G68U: the self-cleavage is 1.14. Take C15U C75G: the self-cleavage amounted to 0.0665.

On to C15G C62A, for which the self-cleavage came to 0.554. To C24G U46A belongs 0.0326; to A51C C85G, 0.831. To A42G A77G belongs 0.208; to G53U U79G, 0.405. Consider G73U G81C, for which the self-cleavage worked out at 0.115. As to C30A U60C, the self-cleavage is 0.582. To C30G G81A belongs 0.0978; to U9C A42G, 0.886. For the variant A78G C84A, the self-cleavage was 0.571. G25A U60G: the self-cleavage is 0.125. For A83G C85G, the self-cleavage was determined as 1.12. The value for U20A G59C was 0.0475; that for G50C C75A was 0.242. On to U65C C84G, for which the self-cleavage came out at 0.646. On to G40A C57G, for which the self-cleavage was found to be 1.02. To G40C U46G belongs 0.0831; to U37G C84A, 0.161; to G38C G76C, 0.122.

For A42G G80A, the self-cleavage amounted to 0.0997. For U79A G80C, the self-cleavage stood at 0.204. To C7U U65G belongs 0.856; to C4G C22A, 0.142.

Take C66A C75G: the self-cleavage amounted to 0.181. To C3U U27C belongs 0.262; to C24A U72G, 0.364; to C57A U65C, 0.762.

For A70U U79A, the self-cleavage turned out to be 0.831.

As for G31A U47A, the self-cleavage stood at 0.332. The value for G6C C26G was 0.378; that for C49G C66A was 0.773; that for U27A G76U was 0.65.

As to G38U A87C, the self-cleavage worked out at 0.231.

For A43C U47G, the self-cleavage was 0.302.

As to C62A A83U, the self-cleavage was found to be 0.494. With C36G G50A, the self-cleavage was 0.109.

Take U79C G81U: the self-cleavage was 0.225.

Regarding G31C C33G, the self-cleavage came to 0.0852. As to G34C G74C, the self-cleavage was 0.0875.

U46A C64A: the self-cleavage came out at 0.554. The value for C21U G82A was 0.0906; that for C49U G50C was 0.991; that for G31U G80U was 0.0675.

For the variant A51G G53U, the self-cleavage was determined as 0.795.

Consider C66A G81C, for which the self-cleavage was 0.163.

As to G50U G54C, the self-cleavage is 0.768. To C26A U65A belongs 0.966. Consider G40C A51U, for which the self-cleavage is 0.157. To C13A C21U belongs 0.0583; to C3G A70U, 0.636.

For the variant G54A G73U, the self-cleavage was determined as 0.211. As to G5A U23A, the self-cleavage is 0.342.

On to A16U G50U, for which the self-cleavage was 0.889. Regarding A43C C49A, the self-cleavage stood at 0.172. To G55C A87U belongs 1.02.

On to G38U C75G, for which the self-cleavage was 0.0707.

On to U9G G34C, for which the self-cleavage came out at 0.175.

On to C86A A87C, for which the self-cleavage is 0.855. The value for C41U G67A was 0.439. Consider U60A A70U, for which the self-cleavage was 1.06.

Take A16G G68C: the self-cleavage amounted to 1.06. C32U G39A: the self-cleavage stood at 0.192. To G6U G55U belongs 0.942; to U23A C41U, 1.14. The value for C24G G52U was 0.0852; that for C3G G59A was 0.831; that for C7G C18A was 0.0639. To C13G A16U belongs 0.19; to C13A G80A, 0.106; to C30G A78G, 0.0923. For U37C U60C, the self-cleavage was found to be 0.864. To A42C A70U belongs 0.312.
